Results on two substances are retold here after US20250215089A1.

For experiment [1], the target named is human PD-L1 (human) (UniProt Q9NZQ7). Briefly: cell-based or functional assay.
Experiment [2] has the same target. Briefly: FACS, CHO-K1/hPD-L1 cells.
Experiment [3] has as its target human CD40 (human) (UniProt P25942). Briefly: FACS, Raji cells.
Experiment [4] deals with human PD-L1 (human) (UniProt Q9NZQ7). Briefly: FACS, NCI-H226 cells.
Experiment [5] deals with human CD40 (human) (UniProt P25942). As to the kind of experiment: FACS, CHO-K1/hCD40 cells. A general note: A flow cytometer gives signals particle by particle.
Sequence of human CD40 (human) (P25942 21-277): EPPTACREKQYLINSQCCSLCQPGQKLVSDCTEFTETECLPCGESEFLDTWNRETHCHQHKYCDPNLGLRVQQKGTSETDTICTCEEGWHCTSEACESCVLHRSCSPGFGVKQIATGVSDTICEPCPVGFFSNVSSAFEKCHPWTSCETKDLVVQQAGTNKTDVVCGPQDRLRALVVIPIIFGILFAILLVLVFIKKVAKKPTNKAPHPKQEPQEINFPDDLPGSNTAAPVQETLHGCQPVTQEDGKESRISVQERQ
Experiment [6] addresses cynomolgus monkey CD40 (cynomolgus monkey). Briefly: FACS, CHO-K1/cyCD40 cells.
Experiment [7] has as its target cynomolgus monkey PD-L1 (cynomolgus monkey). As to the kind of experiment: FACS, CHO-K1/cyPD-L1 cells.

Sequence of human PD-L1 (human) (Q9NZQ7 19-290): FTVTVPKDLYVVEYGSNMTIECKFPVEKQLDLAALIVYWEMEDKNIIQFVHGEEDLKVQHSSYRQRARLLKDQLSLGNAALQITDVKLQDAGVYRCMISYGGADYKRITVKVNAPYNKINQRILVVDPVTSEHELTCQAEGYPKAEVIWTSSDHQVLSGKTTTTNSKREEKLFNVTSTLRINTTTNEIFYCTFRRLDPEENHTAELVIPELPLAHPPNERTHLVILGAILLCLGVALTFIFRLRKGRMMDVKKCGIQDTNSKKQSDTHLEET

hIgG1 (antibody): the Maximum RLU, Jurkat-NFAT-hPD1 reporter in the experiment with human PD-L1 (human) [1] is 2370 RLU. In the experiment with human PD-L1 (human) [2], the Maximum MFI came out at 86 MFI.

With Isotype (antibody), in the experiment with human PD-L1 (human) [1], the Maximum RLU, Jurkat-NFAT-hPD1 reporter is 403 RLU. The Maximum MFI with human CD40 (human) [3] came to 78 MFI; in the experiment with human PD-L1 (human) [4], 55 MFI; with human PD-L1 (human) [2] it was 170 MFI; with human CD40 (human) [5], 23 MFI; in experiment [6], 59 MFI; in experiment [7], 50 MFI.
